In assay [1] the target is C3d C3d (Homo sapiens) (UniProt P01024). Particulars: cited from earlier work.
A further assay deals with complement C3b (human) (UniProt P01024).
The target in assay [2] is C3d C3d (Homo sapiens) (UniProt P01024). The following applies: cited from earlier work. This is another data set of the same source.

Read-outs that look alike come from different tables or passages of the source.

Sequence of C3d C3d (Homo sapiens) (P01024 1002-1303): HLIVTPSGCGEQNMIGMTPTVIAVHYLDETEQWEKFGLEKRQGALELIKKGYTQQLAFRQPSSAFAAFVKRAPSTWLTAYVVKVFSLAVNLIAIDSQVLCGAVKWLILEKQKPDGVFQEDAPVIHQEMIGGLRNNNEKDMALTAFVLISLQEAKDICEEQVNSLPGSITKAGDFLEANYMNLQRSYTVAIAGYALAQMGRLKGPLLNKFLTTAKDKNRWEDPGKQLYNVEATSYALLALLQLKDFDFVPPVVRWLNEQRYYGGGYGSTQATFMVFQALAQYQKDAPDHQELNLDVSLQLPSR
Sequence of Efb-C (domain or fragment) (A6QG59 101-165 limits assumed): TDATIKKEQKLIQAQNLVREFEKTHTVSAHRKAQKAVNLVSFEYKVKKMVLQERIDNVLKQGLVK
Sequence of Efb Efb-C (P68799 101-165): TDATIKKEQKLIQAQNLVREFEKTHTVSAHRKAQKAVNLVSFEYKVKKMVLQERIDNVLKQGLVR

Regarding Efb Efb-C (from UniProt P68799), the Kd – broadly, the constant that tells how readily two partners part at equilibrium – with C3d C3d (Homo sapiens) [1] is 0.0008 µM. Substance Sbi 3–4 (domain or fragment) yielded a C3b left on serum-opsonized S. aureus after plasmin with 2 µM fragment, flow cytometry (amount without plasmin set to 100%) with complement C3b (human) of 50%. On to Efb-C (domain or fragment), for which the C3b left on serum-opsonized S. aureus after plasmin with 2 µM fragment, flow cytometry (amount without plasmin set to 100%) with complement C3b (human) came to 38%.

Turning to Sbi domains 3-4 (from UniProt A7X659), the Kd in the assay with C3d C3d (Homo sapiens) [2] is 1.4 µM.
